Consider one molecule from patent US20160331662A1 (UAB RESEARCH FOUNDATION, published 2016).

Data set [1] deals with T1, FL^SspB (S. gordonii DL1 SspB, residues 39-1433) (Streptococcus gordonii DL1, UniProt P16952 39-1433).
T1 construct: range 39-1433
T1 sequence: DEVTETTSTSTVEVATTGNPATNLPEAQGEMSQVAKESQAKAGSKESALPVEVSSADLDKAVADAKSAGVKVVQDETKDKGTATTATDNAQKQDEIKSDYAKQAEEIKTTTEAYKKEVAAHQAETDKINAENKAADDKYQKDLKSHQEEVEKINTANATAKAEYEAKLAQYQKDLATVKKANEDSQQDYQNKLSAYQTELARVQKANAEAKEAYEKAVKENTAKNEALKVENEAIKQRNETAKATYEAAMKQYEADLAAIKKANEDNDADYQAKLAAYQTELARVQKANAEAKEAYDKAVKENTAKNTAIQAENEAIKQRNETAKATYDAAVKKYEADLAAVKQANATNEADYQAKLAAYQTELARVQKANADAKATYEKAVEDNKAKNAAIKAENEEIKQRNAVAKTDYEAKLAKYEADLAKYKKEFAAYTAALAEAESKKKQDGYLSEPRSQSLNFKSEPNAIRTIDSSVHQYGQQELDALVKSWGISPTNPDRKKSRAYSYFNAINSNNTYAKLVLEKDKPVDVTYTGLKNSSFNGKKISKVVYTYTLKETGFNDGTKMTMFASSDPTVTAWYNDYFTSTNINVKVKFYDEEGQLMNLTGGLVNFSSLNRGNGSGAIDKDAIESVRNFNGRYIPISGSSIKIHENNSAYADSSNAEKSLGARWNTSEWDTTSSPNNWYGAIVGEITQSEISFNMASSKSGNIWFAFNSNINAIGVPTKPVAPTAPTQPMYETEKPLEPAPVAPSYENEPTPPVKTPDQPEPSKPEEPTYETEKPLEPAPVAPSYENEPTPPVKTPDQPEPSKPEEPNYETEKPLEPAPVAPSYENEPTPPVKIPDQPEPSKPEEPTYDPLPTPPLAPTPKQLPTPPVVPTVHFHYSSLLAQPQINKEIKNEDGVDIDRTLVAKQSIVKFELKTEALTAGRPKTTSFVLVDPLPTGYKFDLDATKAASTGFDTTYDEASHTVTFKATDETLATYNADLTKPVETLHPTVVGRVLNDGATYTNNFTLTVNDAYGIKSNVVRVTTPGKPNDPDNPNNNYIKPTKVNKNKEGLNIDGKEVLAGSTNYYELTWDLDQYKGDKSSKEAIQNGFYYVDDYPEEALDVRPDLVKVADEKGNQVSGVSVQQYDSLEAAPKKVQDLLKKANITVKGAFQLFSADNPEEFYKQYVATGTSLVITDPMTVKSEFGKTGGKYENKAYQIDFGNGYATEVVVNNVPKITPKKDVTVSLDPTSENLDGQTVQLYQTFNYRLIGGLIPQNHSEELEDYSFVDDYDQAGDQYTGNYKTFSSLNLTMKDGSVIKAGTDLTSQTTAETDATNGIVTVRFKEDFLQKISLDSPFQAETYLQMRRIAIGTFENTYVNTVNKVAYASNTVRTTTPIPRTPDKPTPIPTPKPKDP
The experiment in a line: SPR, analyte over ligand immobilized on CM5 chip, 1:1 Langmuir model. A general note: SPR reads the build-up and loss of mass on a sensor chip optically.

Data set [2] addresses T2, FL^AgI/II (S. mutans UA159 Antigen I/II, full length recombinant construct) (Streptococcus mutans UA159, UniProt P23504 39-1562).
T2 construct: also called CG14
The data set is described as above.

A further data set has as its target T3, C123^AgI/II (Streptococcus mutans UA159, UniProt P23504 1000-1486).
T3 construct: domain: C123
T3 sequence: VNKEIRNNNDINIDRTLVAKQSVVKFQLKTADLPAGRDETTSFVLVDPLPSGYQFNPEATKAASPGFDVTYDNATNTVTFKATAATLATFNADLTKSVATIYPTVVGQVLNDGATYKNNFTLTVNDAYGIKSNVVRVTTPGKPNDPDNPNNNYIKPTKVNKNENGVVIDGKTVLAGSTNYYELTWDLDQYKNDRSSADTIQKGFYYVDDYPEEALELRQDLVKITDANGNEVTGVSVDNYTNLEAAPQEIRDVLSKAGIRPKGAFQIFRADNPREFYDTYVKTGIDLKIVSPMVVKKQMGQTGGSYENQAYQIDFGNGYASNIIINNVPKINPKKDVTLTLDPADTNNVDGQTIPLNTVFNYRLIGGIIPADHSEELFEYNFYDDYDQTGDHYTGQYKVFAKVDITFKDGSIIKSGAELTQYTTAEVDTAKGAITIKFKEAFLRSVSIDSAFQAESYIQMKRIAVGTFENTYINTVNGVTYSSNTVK
Described as above.

A further data set addresses T4, A3VP1^AgI/II (Streptococcus mutans UA159, UniProt P23504 386-874).
T4 construct: domain: A3VP1; also called A3VP1 of AgI/II
T4 sequence: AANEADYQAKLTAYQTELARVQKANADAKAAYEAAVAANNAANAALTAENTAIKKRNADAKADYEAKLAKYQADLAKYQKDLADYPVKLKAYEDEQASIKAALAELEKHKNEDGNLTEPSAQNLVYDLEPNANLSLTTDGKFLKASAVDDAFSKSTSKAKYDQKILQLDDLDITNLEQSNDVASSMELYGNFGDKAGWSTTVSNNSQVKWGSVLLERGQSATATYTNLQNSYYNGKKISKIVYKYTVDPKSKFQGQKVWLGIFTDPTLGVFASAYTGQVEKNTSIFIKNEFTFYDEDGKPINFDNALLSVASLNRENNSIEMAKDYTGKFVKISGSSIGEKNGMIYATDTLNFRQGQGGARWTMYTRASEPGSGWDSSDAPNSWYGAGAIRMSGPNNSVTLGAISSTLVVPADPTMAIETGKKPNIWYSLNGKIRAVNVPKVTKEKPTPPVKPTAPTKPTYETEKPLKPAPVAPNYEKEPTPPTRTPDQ
Described as above.

Data set [3] deals with the molecule itself. The experiment in a line: SPR, analyte over immobilized iSRCR123; quantity and unit not printed beside the number, told as 'nanomolar affinities'.

T2 sequence (P23504 39-1562): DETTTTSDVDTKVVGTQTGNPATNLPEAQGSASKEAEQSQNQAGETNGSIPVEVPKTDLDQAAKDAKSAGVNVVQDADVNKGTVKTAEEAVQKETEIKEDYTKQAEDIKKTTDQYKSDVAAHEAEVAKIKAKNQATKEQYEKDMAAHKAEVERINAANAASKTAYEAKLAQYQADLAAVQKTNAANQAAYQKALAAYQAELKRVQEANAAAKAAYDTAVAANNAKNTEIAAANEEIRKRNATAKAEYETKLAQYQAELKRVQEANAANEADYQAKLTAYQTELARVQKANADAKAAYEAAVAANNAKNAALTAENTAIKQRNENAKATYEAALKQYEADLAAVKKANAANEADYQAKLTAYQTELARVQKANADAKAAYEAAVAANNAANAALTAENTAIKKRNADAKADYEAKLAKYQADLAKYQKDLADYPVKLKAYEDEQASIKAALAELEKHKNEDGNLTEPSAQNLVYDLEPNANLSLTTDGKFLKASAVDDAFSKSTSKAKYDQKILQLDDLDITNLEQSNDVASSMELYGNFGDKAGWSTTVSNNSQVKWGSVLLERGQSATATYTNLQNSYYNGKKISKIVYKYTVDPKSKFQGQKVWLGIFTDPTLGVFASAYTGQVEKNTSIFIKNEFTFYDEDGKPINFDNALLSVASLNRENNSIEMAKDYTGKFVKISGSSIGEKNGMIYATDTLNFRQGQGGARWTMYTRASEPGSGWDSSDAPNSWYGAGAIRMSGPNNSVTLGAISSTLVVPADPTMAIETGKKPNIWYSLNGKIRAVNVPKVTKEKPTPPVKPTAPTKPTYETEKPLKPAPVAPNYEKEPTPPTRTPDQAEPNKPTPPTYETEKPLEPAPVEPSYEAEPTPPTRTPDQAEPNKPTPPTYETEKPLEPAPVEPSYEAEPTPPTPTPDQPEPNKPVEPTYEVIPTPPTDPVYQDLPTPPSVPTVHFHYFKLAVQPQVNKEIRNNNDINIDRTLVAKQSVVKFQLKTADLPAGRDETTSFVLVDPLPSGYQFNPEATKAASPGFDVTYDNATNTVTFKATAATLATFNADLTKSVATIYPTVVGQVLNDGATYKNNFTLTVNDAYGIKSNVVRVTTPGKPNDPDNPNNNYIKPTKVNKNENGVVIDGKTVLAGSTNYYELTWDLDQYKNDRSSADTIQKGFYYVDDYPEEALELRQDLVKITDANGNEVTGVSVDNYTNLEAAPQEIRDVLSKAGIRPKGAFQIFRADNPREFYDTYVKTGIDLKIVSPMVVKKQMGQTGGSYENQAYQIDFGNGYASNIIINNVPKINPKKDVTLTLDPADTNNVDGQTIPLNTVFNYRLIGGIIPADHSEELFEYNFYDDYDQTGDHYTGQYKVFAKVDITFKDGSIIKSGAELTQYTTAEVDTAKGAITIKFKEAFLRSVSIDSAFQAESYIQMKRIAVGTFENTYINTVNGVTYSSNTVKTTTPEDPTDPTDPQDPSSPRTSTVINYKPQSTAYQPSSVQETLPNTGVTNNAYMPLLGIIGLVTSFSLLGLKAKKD

B1: iSRCR123 (receptor, not shown: small tags and cut ends)
chain: not shown
notes: domain: SRCR123; also called SRCRs; iSRCRs
The Kd is a measure of binding affinity in units of concentration. A word on the koff: it is the rate constant with which the complex falls apart. For orientation: kon means the rate constant with which the complex forms. Consider B1, for which the Ka was found to be 2.38e+07 M⁻¹ in data set [1], 1.34e+08 M⁻¹ in data set [2], 1.15e+07 M⁻¹ in the data set with C123^AgI/II and 7.98e+06 M⁻¹ with A3VP1^AgI/II. In addition, the Kd in data set [1] amounted to 42.1 nM; in data set [2] it was 7.46 nM; with C123^AgI/II, 87 nM; with A3VP1^AgI/II, 125 nM; in data set [3], 6.72 nM. In addition, the koff was 0.000759 s⁻¹ in data set [1], 0.000743 s⁻¹ in data set [2], 0.000721 s⁻¹ in the data set with C123^AgI/II and 0.00249 s⁻¹ with A3VP1^AgI/II. Also, the kon in data set [1] came to 18200 M⁻¹ s⁻¹; in data set [2], 99700 M⁻¹ s⁻¹; with C123^AgI/II it was 8290 M⁻¹ s⁻¹; in the data set with A3VP1^AgI/II, 19900 M⁻¹ s⁻¹.
